US8840891 (RSR, dated 2014)

Key:
[1] = target: T1, TSHR coated onto tubes (human, UniProt P16473 21-764, limits assumed); assay: TSHR coated tubes, competitor 125I-M22 IgG
T1 construct: whole entry named; also called TSHR coated tubes; thyrotropin receptor

[2] = target: T1, TSHR coated onto tubes; assay: TSHR coated tubes, competitor 125I-TSH
[3] = target: T1, TSHR coated onto tubes; assay: TSHR coated tubes, competitor 125I-5C9 IgG

Binder | % inhib of 125I-M22 IgG binding at 0.01 µg/mL [1] [%] | % inhib of 125I-M22 IgG binding at 0.1 µg/mL [1] [%] | % inhib of 125I-M22 IgG binding at 1 µg/mL [1] [%] | % inhib of 125I-M22 IgG binding at 10 µg/mL [1] [%] | % inhib of 125I-M22 IgG binding at 100 µg/mL [1] [%] | % inhib of 125I-TSH binding at 0.01 µg/mL [2] [%] | % inhib of 125I-TSH binding at 0.1 µg/mL [2] [%] | % inhib of 125I-TSH binding at 1 µg/mL [2] [%] | % inhib of 125I-TSH binding at 10 µg/mL [2] [%] | % inhib of 125I-TSH binding at 100 µg/mL [2] [%] | % inhib of 125I-5C9 IgG binding at 0.01 µg/mL [3] [%] | % inhib of 125I-5C9 IgG binding at 0.1 µg/mL [3] [%] | % inhib of 125I-5C9 IgG binding at 1 µg/mL [3] [%] | % inhib of 125I-5C9 IgG binding at 10 µg/mL [3] [%] | % inhib of 125I-5C9 IgG binding at 100 µg/mL [3] [%]
17D2 IgG (antibody, V domains shown) VH: DVQIQQSGPELVKPGASVKMSCKASGYSFTAYNMHWVKQTHGKSLEWIGYIDPYSGATSYHQKFKGKATLTVDKSSSTAYMRLNSLTSEDSAVYYCARRWDWDPYAMDYWGQGTSVTVSS VL: SVEMSQSPAILSVSPGERISFSCRASQSIGTSIHWYQQRTNGSPRLLIKYASASISGIPSRFSGSGSGTDFTLSINSVESEDIADYYCQQSNSWPLTFGAGTKLELKR | 1 | 13 | 24 | 39 | 49 | 3 | 7 | 24 | 43 | 56 | 3 | 11 | 26 | 43 | 55
16E5 IgG (antibody, V domains shown) VH: DVQLVQSGPELVKPGASVKMSCKASGYSFTGYNMHWVKQSHGKSLEWIGYIDPYNGATSYNQKFEDKATLTVDKSSSTAYMQLNSLTSEDSAVYYCARRWDWDPYAMDYWGQGTSVTVSS VL: DILLTQSPAILSVSPGERVSFSCRASQSIGTSIHWYQQRTNGSPRLLIKYASESISGIFSRFSGSGSGTDFTLTINSVESEDIADYYCQQSNRWPLTFGAGTKLELKR | 12 | 22 | 40 | 51 | 53 | 9 | 26 | 39 | 44 | 48 | 20 | 34 | 47 | 53 | 59
